In US20030114646A1 (Human Genome Sciences, published 2003):

Biological target: T1, papain (UniProt P00784 134-345)
T1 sequence (looked up): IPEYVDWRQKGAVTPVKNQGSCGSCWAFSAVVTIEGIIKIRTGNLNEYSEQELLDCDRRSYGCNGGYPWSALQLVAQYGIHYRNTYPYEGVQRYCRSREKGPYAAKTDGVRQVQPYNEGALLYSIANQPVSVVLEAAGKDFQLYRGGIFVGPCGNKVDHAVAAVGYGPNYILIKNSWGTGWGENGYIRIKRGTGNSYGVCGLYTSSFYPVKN
Test: reversible inhibition of papain activity, Ki corrected for substrate competition (Km=60 µM)

B1: human Cystatin F (recombinant, produced in a baculovirus system) (other)
chain: GPSPDTCSQDLNSRVKPGFPKTIKTNDPGVLQAARYSVEKFNNCTNDMFLFKESRITRALVQIVKGLKYMLEVEIGRTTCKKNQHLRLDDCDFQTNHTLKQTLSCYSEVWVVPWLQHFEVPVLRCH
notes: 20-145 is used here; also called recombinant Cystatin F
Q: How did the Ki turn out when B1 was run?
A: Its Ki is 1.05 nM.
